Legend:
Assay in all cases: cell-based or functional assay
IKBKB (IKK beta) IKK2 = biological target: T1, IKBKB (IKK beta) IKK2 (human (printed as (h)), UniProt O14920 1-756, limits assumed)
T1 sequence (looked up): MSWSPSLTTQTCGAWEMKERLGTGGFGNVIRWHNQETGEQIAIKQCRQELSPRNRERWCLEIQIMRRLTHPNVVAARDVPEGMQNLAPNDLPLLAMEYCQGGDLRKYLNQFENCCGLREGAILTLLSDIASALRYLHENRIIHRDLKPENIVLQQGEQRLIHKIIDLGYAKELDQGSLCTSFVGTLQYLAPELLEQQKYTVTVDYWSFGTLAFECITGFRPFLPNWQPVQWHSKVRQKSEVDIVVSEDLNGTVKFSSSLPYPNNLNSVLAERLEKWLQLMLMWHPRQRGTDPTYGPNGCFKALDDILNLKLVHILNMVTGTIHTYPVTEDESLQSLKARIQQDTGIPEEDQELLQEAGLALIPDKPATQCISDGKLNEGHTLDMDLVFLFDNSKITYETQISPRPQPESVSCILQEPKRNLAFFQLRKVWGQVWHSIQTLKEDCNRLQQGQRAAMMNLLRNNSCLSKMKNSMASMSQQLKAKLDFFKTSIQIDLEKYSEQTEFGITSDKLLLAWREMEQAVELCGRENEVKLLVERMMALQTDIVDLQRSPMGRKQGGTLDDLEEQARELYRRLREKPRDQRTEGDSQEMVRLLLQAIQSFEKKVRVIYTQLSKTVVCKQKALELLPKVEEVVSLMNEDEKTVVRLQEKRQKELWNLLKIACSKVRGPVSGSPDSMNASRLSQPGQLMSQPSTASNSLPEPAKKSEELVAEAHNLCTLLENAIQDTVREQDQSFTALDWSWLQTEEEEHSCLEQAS

[1] = biological target: SYK Spleen tyrosine kinase (UniProt P43405 1-635, limits assumed)
SRMS (Srm) = SRMS (Srm) (UniProt Q9H3Y6 1-488, limits assumed)
AKT2 (PKB beta) = AKT2 (PKB beta) (human (printed as (h)), UniProt P31751 1-481, limits assumed)
PRKCB2 (PKC beta II) = PRKCB2 (PKC beta II) (human (printed as (h)), UniProt P05771-2 1-673)
MST4 = MST4 (UniProt Q9P289 1-416, limits assumed)
PRKX = biological target: T2, PRKX (UniProt P51817 1-358, limits assumed)
T2 sequence (looked up): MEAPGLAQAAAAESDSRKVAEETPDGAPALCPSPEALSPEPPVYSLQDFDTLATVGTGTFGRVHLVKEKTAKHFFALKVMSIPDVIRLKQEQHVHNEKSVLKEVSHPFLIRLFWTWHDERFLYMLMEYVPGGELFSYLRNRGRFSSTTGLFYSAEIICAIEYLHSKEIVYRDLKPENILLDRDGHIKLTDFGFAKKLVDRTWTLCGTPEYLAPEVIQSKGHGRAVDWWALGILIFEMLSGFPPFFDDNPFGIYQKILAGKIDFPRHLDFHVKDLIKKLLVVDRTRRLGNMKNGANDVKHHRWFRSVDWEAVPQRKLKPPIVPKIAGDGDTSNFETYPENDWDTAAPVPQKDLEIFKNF

IRAK4 (interleukin-1 …) = biological target: T3, IRAK4 (interleukin-1 receptor-associated kinase 4) (UniProt Q9NWZ3 1-460, limits assumed)
T3 sequence (looked up): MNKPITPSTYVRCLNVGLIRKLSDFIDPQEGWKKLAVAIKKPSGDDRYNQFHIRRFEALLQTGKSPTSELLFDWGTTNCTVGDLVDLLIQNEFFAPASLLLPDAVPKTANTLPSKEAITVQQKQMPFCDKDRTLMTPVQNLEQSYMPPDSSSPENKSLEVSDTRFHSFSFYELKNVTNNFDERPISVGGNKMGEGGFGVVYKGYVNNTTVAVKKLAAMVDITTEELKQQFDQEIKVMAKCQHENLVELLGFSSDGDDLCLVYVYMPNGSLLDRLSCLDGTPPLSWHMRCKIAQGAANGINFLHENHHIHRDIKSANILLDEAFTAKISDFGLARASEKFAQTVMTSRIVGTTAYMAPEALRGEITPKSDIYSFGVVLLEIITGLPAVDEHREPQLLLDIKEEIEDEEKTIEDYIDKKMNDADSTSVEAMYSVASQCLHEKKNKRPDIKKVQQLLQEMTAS

NEK2 = biological target: T4, NEK2 (UniProt P51955 1-445, limits assumed)
T4 sequence (looked up): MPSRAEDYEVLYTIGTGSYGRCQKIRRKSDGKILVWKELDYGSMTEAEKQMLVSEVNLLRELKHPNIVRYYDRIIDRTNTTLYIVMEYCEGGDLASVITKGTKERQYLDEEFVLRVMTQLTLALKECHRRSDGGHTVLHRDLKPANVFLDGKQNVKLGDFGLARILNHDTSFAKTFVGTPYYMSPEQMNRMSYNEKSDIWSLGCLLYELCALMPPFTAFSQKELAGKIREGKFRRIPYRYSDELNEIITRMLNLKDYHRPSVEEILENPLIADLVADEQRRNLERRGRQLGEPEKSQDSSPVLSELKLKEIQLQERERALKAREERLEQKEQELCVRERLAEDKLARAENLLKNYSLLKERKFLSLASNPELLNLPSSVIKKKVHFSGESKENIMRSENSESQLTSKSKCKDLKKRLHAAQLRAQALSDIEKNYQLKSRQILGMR

[2] = biological target: MAPK8 (JNK1) Mitogen-activated protein kinase 8 (UniProt P45983 1-427, limits assumed)
GRK4 = GRK4 (UniProt P32298 1-578, limits assumed)
PRKCD (PKC delta) = PRKCD (PKC delta) (UniProt Q05655 1-676, limits assumed)
Note: test concentration or dose not given here.

Chain of AKT2 (PKB beta) (human (printed as (h)), UniProt P31751 1-481, limits assumed) (P31751 whole entry): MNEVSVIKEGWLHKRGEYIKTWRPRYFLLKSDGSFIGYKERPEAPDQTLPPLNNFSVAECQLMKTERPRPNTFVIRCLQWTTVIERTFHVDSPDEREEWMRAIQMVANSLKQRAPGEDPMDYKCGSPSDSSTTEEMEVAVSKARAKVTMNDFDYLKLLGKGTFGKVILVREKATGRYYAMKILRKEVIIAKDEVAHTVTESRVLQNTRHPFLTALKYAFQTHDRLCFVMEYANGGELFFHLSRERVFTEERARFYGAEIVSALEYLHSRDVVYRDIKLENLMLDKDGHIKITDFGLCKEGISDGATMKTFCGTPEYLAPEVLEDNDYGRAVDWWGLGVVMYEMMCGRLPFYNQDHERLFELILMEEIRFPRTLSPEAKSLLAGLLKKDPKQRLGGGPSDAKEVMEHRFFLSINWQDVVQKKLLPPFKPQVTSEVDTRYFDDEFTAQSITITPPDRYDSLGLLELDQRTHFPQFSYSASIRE
Chain of GRK4 (P32298 whole entry): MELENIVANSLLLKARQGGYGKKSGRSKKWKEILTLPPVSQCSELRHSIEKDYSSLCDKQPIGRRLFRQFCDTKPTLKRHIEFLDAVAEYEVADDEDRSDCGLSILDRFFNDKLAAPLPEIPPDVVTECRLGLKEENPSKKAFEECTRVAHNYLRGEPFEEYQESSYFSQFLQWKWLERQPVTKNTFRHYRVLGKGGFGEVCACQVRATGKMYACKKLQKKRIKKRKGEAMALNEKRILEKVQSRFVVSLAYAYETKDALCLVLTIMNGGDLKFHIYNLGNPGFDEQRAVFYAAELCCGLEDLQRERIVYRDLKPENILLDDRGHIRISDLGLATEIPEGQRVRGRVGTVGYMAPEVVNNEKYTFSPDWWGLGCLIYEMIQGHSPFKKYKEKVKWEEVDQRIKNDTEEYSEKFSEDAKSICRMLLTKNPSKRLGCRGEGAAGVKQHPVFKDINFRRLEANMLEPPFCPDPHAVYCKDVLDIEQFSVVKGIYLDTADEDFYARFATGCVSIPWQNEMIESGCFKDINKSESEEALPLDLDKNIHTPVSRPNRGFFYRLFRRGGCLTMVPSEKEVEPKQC
Chain of MST4 (Q9P289 whole entry): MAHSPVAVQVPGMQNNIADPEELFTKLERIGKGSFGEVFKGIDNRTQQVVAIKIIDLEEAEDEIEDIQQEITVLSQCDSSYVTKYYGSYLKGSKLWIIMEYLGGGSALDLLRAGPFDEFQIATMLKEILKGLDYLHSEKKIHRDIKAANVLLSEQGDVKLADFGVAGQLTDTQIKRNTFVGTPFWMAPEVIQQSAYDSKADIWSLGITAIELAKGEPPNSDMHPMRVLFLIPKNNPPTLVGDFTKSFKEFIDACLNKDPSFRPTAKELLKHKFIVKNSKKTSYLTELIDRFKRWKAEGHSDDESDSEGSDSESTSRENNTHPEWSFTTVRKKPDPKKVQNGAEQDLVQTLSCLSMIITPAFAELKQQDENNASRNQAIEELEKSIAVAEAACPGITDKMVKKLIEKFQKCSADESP
Chain of PRKCB2 (PKC beta II) (human (printed as (h)), UniProt P05771-2 1-673) (P05771 other isoform, or with tags, fused parts or gaps limits assumed): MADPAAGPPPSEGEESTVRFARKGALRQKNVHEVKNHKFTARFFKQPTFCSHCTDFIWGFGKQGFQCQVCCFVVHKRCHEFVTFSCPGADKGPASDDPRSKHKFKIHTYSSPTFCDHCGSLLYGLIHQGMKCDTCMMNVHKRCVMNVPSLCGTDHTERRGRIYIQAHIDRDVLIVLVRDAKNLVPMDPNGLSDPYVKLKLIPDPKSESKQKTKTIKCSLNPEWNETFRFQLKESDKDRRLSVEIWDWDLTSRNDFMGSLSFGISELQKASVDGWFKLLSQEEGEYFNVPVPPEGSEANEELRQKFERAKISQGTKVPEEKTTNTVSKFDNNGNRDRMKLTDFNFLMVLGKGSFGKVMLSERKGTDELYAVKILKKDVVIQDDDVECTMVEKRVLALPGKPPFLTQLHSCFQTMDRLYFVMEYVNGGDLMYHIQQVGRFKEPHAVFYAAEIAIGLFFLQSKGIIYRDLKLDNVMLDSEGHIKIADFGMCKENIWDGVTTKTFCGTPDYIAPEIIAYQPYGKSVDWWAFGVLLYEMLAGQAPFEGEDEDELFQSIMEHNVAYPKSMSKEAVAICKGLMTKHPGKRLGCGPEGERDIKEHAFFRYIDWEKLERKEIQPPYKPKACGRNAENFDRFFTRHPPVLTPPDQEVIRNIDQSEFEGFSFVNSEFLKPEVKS
Chain of MAPK8 (JNK1) Mitogen-activated protein kinase 8 (P45983 whole entry): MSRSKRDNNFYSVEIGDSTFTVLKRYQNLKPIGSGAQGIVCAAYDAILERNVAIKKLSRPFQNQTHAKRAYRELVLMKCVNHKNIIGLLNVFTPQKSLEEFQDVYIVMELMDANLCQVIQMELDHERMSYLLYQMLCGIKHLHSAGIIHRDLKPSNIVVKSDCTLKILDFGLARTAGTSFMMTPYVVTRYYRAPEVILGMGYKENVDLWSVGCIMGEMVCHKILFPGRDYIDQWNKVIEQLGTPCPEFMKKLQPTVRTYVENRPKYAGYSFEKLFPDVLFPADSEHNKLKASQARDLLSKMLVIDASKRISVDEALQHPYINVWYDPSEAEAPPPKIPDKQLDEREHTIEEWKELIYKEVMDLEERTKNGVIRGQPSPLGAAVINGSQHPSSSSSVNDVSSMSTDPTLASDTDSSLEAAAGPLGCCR
Chain of PRKCD (PKC delta) (Q05655 whole entry, stated change not applied): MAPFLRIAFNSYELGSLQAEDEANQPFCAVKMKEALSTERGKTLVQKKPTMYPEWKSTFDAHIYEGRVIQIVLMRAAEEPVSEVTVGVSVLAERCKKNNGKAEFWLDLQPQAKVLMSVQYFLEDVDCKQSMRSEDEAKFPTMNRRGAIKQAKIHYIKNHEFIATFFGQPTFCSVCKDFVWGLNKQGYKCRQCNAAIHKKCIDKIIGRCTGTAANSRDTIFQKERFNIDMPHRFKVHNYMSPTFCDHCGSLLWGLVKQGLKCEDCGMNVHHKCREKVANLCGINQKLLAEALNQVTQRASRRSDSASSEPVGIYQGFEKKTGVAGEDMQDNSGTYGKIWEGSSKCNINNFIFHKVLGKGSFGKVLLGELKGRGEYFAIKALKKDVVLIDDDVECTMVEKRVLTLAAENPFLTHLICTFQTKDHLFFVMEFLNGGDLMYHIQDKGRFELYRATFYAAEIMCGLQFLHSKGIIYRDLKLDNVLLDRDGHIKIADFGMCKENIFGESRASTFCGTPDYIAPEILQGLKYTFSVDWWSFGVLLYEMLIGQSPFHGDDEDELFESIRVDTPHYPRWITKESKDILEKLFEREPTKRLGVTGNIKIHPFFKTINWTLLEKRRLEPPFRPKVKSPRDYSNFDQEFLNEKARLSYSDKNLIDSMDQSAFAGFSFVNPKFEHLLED
Chain of SRMS (Srm) (Q9H3Y6 whole entry): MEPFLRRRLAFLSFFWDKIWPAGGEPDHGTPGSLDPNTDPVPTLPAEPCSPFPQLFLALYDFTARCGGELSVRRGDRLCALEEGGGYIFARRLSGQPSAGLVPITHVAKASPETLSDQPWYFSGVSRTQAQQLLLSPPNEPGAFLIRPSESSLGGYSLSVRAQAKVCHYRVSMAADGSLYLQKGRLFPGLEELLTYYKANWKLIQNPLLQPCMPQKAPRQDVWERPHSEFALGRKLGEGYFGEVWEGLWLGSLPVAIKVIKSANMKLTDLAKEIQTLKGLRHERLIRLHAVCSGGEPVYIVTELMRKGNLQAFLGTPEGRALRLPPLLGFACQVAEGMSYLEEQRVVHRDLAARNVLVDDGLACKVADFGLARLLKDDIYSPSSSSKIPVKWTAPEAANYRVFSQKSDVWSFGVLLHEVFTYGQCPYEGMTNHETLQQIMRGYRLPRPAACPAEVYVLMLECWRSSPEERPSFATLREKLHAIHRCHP

B1: D3 peptide (peptide)
peptide: SGRPPMIVWFNRPFLIAVSHTHGQTILFMAKVINPVGA
- % Inhibition mean (IKBKB (IKK beta) IKK2): 41%
- % Inhibition mean [1]: 54%
- % Inhibition mean (SRMS (Srm)): 46.5%
- % Inhibition mean (AKT2 (PKB beta)): 67.7%
- % Inhibition mean (PRKCB2 (PKC beta II)): 61.6%
- % Inhibition mean (MST4): 101%
- % Inhibition mean (PRKX): 100%
- % Inhibition mean (IRAK4 (interleukin-1 …)): 96%
- % Inhibition mean (NEK2): 89.6%
- % Inhibition mean [2]: 89%
- % Inhibition mean (GRK4): 58.6%
- % Inhibition mean (PRKCD (PKC delta)): 57.4%
